Data set [1] concerns the molecule itself. In words: SEC-MALS; Superdex 75 Increase 10/300 GL, 50 mM NaH2PO4 pH 7.0, 200 mM NaCl, 0.5 ml/min; protein concentrations of 100 μM (Fig. 4, D and E). Background: Size exclusion chromatography separates by hydrodynamic size, large species first.
Data set [2] addresses T1, EYFP-HilD (Salmonella enterica, UniProt P0CL08 1-309).
T1 construct: HilD of Salmonella enterica, UniProt P0CL08; eyfp was ligated (BamHI/EheI) into the SUMO-HilD expression vector that gives the full-length HilD; EYFP is the fluorescent label used for MST detection; also called EYFP-HilD fusion protein; source: E. coli C41(DE3), purified (Ni-NTA, SUMO protease cleavage, second Ni-NTA, SEC on Superdex 200); not shown: His6-SUMO, N-terminal, cleaved; EYFP, …
T1 sequence: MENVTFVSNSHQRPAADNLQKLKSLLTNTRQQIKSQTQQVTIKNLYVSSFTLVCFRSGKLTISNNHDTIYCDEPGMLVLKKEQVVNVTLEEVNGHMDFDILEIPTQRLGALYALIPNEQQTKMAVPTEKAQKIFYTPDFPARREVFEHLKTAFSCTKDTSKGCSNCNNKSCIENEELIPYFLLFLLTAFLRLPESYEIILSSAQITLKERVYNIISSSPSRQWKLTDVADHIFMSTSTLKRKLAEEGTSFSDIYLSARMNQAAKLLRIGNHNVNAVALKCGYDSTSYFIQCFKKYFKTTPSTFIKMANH
Description: MST; homodimerization: unlabeled HilD titrated against EYFP-HilD preincubated with 1% DMSO; MST on-time 1.5 s, 25 °C. To be noted: both partners purified.

Data set [3] concerns the target T1, EYFP-HilD. Description: MST; homodimerization: unlabeled HilD (3.05 nM to 100 μM) titrated against 50 nM EYFP-HilD; 25 °C, 0.05% Pluronic F-127, protein storage buffers; dimer to monomers. The settings on record: both partners purified.

B1: HilD NTD (residues 7-206) (domain or fragment)
chain: VSNSHQRPAADNLQKLKSLLTNTRQQIKSQTQQVTIKNLYVSSFTLVCFRSGKLTISNNHDTIYCDEPGMLVLKKEQVVNVTLEEVNGHMDFDILEIPTQRLGALYALIPNEQQTKMAVPTEKAQKIFYTPDFPARREVFEHLKTAFSCTKDTSKGCSNCNNKSCIENEELIPYFLLFLLTAFLRLPESYEIILSSAQIT
notes: a His6 tag stands in place of the first six residues of HilD; No cleavage of the His6 tag is described (no protease site, purification goes from Ni-NTA to SEC); also called HilD_(7-206) (NTD); His6-tagged HilD NTD construct; source: E. coli C41(DE3), purified (Ni-NTA, SEC on Superdex 75); not shown: His6, N-terminal, kept
Turning to B1, in data set [1], the “stoichiometry N” value is 2.

B2: HilD (full-length, unfused) (natural protein)
chain: MENVTFVSNSHQRPAADNLQKLKSLLTNTRQQIKSQTQQVTIKNLYVSSFTLVCFRSGKLTISNNHDTIYCDEPGMLVLKKEQVVNVTLEEVNGHMDFDILEIPTQRLGALYALIPNEQQTKMAVPTEKAQKIFYTPDFPARREVFEHLKTAFSCTKDTSKGCSNCNNKSCIENEELIPYFLLFLLTAFLRLPESYEIILSSAQITLKERVYNIISSSPSRQWKLTDVADHIFMSTSTLKRKLAEEGTSFSDIYLSARMNQAAKLLRIGNHNVNAVALKCGYDSTSYFIQCFKKYFKTTPSTFIKMANH
notes: HilD, AraC/XylS transcription regulator of Salmonella enterica, UniProt P0CL08; Exclusively a homodimer alone by SEC-MALS; a single copy stands in the 1:1 complex with HilE; also called unlabeled HilD; unfused HilD; source: E. coli C41(DE3), purified (Ni-NTA, SUMO protease cleavage, second Ni-NTA, SEC); not shown: His6-SUMO, N-terminal, cleaved
Consider B2, for which the Kd in the data set with EYFP-HilD [2] turned out to be 4.33 ± 0.72 µM; with EYFP-HilD [3] it was 3.85 ± 0.63 µM. Besides, in data set [1], the “stoichiometry N” value was determined as 2.

By stoichiometry N is commonly meant the number of molecules, sites or subunits per partner or assembly. The term Kd denotes the constant that tells how readily two partners part at equilibrium. Higher therefore signals weaker binding.
